Results on one substance are retold here after paper PMC7222407.

In the assay the target is Cu,Zn superoxide dismutase (SOD1) from Chionodraco hamatus (Chionodraco hamatus). Nature of the assay: SEC; gel exclusion chromatography on a Sephadex G-75 column against standards (bovine serum albumin, ovalbumin, chymotrypsinogen A, cytochrome c); native mass compared with the monomer mass from SDS-PAGE with 2-mercaptoethanol and MALDI-TOF.

By stoichiometry N is commonly meant a count of units in the complex or per binding partner.

Substance “Cu,Zn superoxide dismutase (SOD1) from Chionodraco hamatus (enzyme)” displayed a stoichiometry N of 2.
